Source: publication PMC5579192, “De novo design of antibody complementarity determining regions binding a FLAG tetra-peptide” (Scientific Reports, 2017)

T1: MBP-KEE ligand (EE peptide) (peptide tag (EE/Glu-Glu), derived from …)
T1 construct: EE peptide presented by MBP
T1 chain: EYMPME

T2: carrier protein (scFv 14B7) with the minimal DYKD peptide at the n-terminus (synthetic peptide tag (minimal FLAG))
T2 construct: minimal FLAG peptide at the protein n-terminus; irrelevant scFv 14B7 used as carrier protein; also called n-DYKD; n-DYKD ligand; source: plasmid pAK400/14B7
T2 chain: DYKD

B1: EEh13.6 Fab (Fab, V domains shown)
VH: QVQLQQSGPEDVKPGASVKISCKASGDSLSSFNAGVNWVKQSPGKGLEWLAHGAVMSTRYNPSLKSRATLTVDKTSSTVYLELRSLTSEDSSVYYCAKSTGRYDFWGQGTTVTVSS
VL: DIVMTQTPSSLPVSLGDQASISCRSSQSIVHSNGNTYLEWYLQKPGQSPKLLIYKVSNRFSGVPDRFSGSGSGTDFTLKISRVEAEDLGIYYCFQGSLVPPTFGAGTKLELK
notes: VH as the VH of m1: framework of the αEE scFv (PDB 3NN8) with designed CDRs H1-H3; heavy chain constant part of the Fab from the vector pFabF; not described; VL as in the αEE scFv (PDB 3NN8), not modified in the EEh library; kappa light chain constant domain from the vector pFabF; human by the detection reagent (goat anti-human kappa); This Fab co-purified with free light chain (33 % monomer); …
B2: EEh14.3 Fab (Fab, V domains shown)
VH: QVQLQQSGPEDVKPGASVKISCKASGDSLSSYNAGVNWVKQSPGKGLEWLAHMAGVSTRYNPSLKSRATLTVDKTSSTVYLELRSLTSEDSSVYYCVRNEWSGAFWGQGTTVTVSS
VL: DIVMTQTPSSLPVSLGDQASISCRSSQSIVHSNGNTYLEWYLQKPGQSPKLLIYKVSNRFSGVPDRFSGSGSGTDFTLKISRVEAEDLGIYYCFQGSLVPPTFGAGTKLELK
notes: VH as the VH of m2: framework of the αEE scFv (PDB 3NN8) with designed CDRs H1-H3; heavy chain constant part of the Fab from the vector pFabF; not described; VL as in the αEE scFv (PDB 3NN8), not modified in the EEh library; kappa light chain constant domain from the vector pFabF; human by the detection reagent (goat anti-human kappa); also called Fab EEh14.3
B3: EEh13.6 scFv displayed on phage (scFv, V domains shown)
VH: QVQLQQSGPEDVKPGASVKISCKASGDSLSSFNAGVNWVKQSPGKGLEWLAHGAVMSTRYNPSLKSRATLTVDKTSSTVYLELRSLTSEDSSVYYCAKSTGRYDFWGQGTTVTVSS
VL: DIVMTQTPSSLPVSLGDQASISCRSSQSIVHSNGNTYLEWYLQKPGQSPKLLIYKVSNRFSGVPDRFSGSGSGTDFTLKISRVEAEDLGIYYCFQGSLVPPTFGAGTKLELK
notes: VL as in the αEE scFv (PDB 3NN8); the light chain was not modified in the EEh library; linker, printed as (GGGGS)4; VH: framework of the αEE scFv (PDB 3NN8) with designed CDRs H1-H3; model PDB file in the supplementary datasets; Orientation VL-(GGGGS)4-VH; no amino acid differences from αEE outside the CDRs; also called EEh13.6 scFv-phage; source: E. coli, scFv fused to truncated pIII on phage …
B4: αEE Fab (parental) (Fab, V domains shown)
VH: QVQLQQSGPEDVKPGASVKISCKASGYSLSTSGMGVNWVKQSPGKGLEWLAHIYWDDDKRYNPSLKSRATLTVDKTSSTVYLELRSLTSEDSSVYYCARRGGSSHYYAMDYWGQGTTVTVSS
VL: DIVMTQTPSSLPVSLGDQASISCRSSQSIVHSNGNTYLEWYLQKPGQSPKLLIYKVSNRFSGVPDRFSGSGSGTDFTLKISRVEAEDLGIYYCFQGSLVPPTFGAGTKLELK
notes: VH of the αEE scFv; heavy chain constant part of the Fab; not described; VL of the αEE scFv; kappa light chain constant domain; human by the detection reagent (goat anti-human kappa); also called parental αEE Fab; source: bacterial periplasm, purified Fab
B5: EEh14.3 scFv displayed on phage (scFv, V domains shown)
VH: QVQLQQSGPEDVKPGASVKISCKASGDSLSSYNAGVNWVKQSPGKGLEWLAHMAGVSTRYNPSLKSRATLTVDKTSSTVYLELRSLTSEDSSVYYCVRNEWSGAFWGQGTTVTVSS
VL: DIVMTQTPSSLPVSLGDQASISCRSSQSIVHSNGNTYLEWYLQKPGQSPKLLIYKVSNRFSGVPDRFSGSGSGTDFTLKISRVEAEDLGIYYCFQGSLVPPTFGAGTKLELK
notes: VL as in the αEE scFv (PDB 3NN8); the light chain was not modified in the EEh library; linker, printed as (GGGGS)4; VH: framework of the αEE scFv (PDB 3NN8) with designed CDRs H1-H3; model PDB file in the supplementary datasets; Orientation VL-(GGGGS)4-VH; no amino acid differences from αEE outside the CDRs; also called EEh14.3 scFv-phage; source: E. coli, scFv fused to truncated pIII on phage …
B6: EEf15.4 Fab (Fab, V domains shown)
VH: QVQLQQSGPEDVKPGASVKISCKASGFSIKGANVNWVKQSPGKGLEWLAHVRGDASTRYNPSLKSRATLTVDKTSSTVYLELRSLTSEDSSVYYCADRKMYSFYSGGEAWGQGTTVTVSS
VL: DIVMTQTPSSLPVSLGDQASISCRSSNARSGSLEWYLQKPGQSPKLLIYDGNNRFSGVPDRFSGSGSGTDFTLKISRVEAEDLGIYYCSAFDQTNKYVGFGAGTKLELK
notes: VH as the VH of m3: framework of the αEE scFv (PDB 3NN8) with designed CDRs H1-H3; heavy chain constant part of the Fab from the vector pFabF; not described; VL as the VL of m3: framework of the αEE scFv (PDB 3NN8) with designed CDRs L1-L3; kappa light chain constant domain from the vector pFabF; human by the detection reagent (goat anti-human kappa); also called Fab EEf15.4
B7: EEf15.4 scFv displayed on phage (scFv, V domains shown)
VH: QVQLQQSGPEDVKPGASVKISCKASGFSIKGANVNWVKQSPGKGLEWLAHVRGDASTRYNPSLKSRATLTVDKTSSTVYLELRSLTSEDSSVYYCADRKMYSFYSGGEAWGQGTTVTVSS
VL: DIVMTQTPSSLPVSLGDQASISCRSSNARSGSLEWYLQKPGQSPKLLIYDGNNRFSGVPDRFSGSGSGTDFTLKISRVEAEDLGIYYCSAFDQTNKYVGFGAGTKLELK
notes: VL: framework of the αEE scFv (PDB 3NN8) with designed CDRs L1-L3; model PDB file in the supplementary datasets; linker, printed as (GGGGS)4; VH: framework of the αEE scFv (PDB 3NN8) with designed CDRs H1-H3; Orientation VL-(GGGGS)4-VH; no amino acid differences from αEE outside the CDRs; also called EEf15.4 scFv-phage; source: E. coli, scFv fused to truncated pIII on phage (phagemid pMopac24); …
B8: EEf15.4a scFv displayed on phage (scFv, V domains shown)
VH: QVQLQQSGPEDVKPGASVKISCKASGYIGSSHTVNWVKQSPGKGLEWLAHVRGDASTRYNPSLKSRATLTVDKTSSTVYLELRSLTSEDSSVYYCADRKMYSFYSGGEAWGQGTTVTVSS
VL: DIVMTQTPSSLPVSLGDQASISCRSSNARSGSLEWYLQKPGQSPKLLIYDGNNRFSGVPDRFSGSGSGTDFTLKISRVEAEDLGIYYCSAFDQTNKYVGFGAGTKLELK
notes: VL as the VL of EEf15.4: framework of the αEE scFv (PDB 3NN8) with designed CDRs L1-L3; linker, printed as (GGGGS)4; VH as the VH of EEf15.4 except CDR H1, which is that of design EEf5.1; framework of the αEE scFv (PDB 3NN8); Result of a gene synthesis error that combined CDR H1 of EEf5.1 with the other five CDRs of EEf15.4; also called EEf15.4a scFv-phage; source: E. coli, scFv fused …
B9: EEf15.4a Fab (Fab, V domains shown)
VH: QVQLQQSGPEDVKPGASVKISCKASGYIGSSHTVNWVKQSPGKGLEWLAHVRGDASTRYNPSLKSRATLTVDKTSSTVYLELRSLTSEDSSVYYCADRKMYSFYSGGEAWGQGTTVTVSS
VL: DIVMTQTPSSLPVSLGDQASISCRSSNARSGSLEWYLQKPGQSPKLLIYDGNNRFSGVPDRFSGSGSGTDFTLKISRVEAEDLGIYYCSAFDQTNKYVGFGAGTKLELK
notes: VH as the VH of m4: as EEf15.4 except CDR H1, which is that of design EEf5.1; framework of the αEE scFv (PDB 3NN8); heavy chain constant part of the Fab from the vector pFabF; not described; VL as the VL of m3: framework of the αEE scFv (PDB 3NN8) with designed CDRs L1-L3; kappa light chain constant domain from the vector pFabF; human by the detection reagent (goat anti-human kappa); also called …

Experiments:
Settings in all cases: both partners purified
[1] = biological target: T1, MBP-KEE ligand (EE peptide); assay: ELISA; wells coated with carrier protein ligands (10 μg/mL); purified Fab serially diluted; detected with goat-anti-human kappa-HRP
[2] = biological target: T2, carrier protein (scFv 14B7) with the …; assay: as above
[3] = biological target: T1, MBP-KEE ligand (EE peptide); assay: ELISA; monoclonal phage ELISA: phage purified by NaCl-PEG precipitation, serially diluted at known pfu, on wells coated with ligand (4 μg/ml); detected with anti-M13-HRP; signal shown at 10^11 pfu
[4] = biological target: T1, MBP-KEE ligand (EE peptide); assay: ELISA; wells coated with carrier protein ligands (10 μg/mL); purified Fab serially diluted; detected with goat-anti-human kappa-HRP
[5] = biological target: T3, carrier protein (scFv 14B7) with the minimal DYKD peptide at the n-terminus (synthetic peptide tag (minimal FLAG)); assay: as above; remark: listed apart in the source
T3 construct: minimal FLAG peptide at the protein n-terminus; irrelevant scFv 14B7 used as carrier protein; also called n-DYKD; n-DYKD ligand; source: plasmid pAK400/14B7

Binder	binding result [1]	binding result [3]	other results
B1	no binding	–	EC50 [2]: 0.021 µM
B2	no binding	–	EC50 [2]: 0.05 µM
B3	–	no binding	–
B4	–	–	EC50 [4]: 0.0353 µM
B5	–	no binding	–
B6	no binding	–	EC50 [5]: 0.0041 µM
B7	–	no binding	–
B8	–	no binding	–
B9	no binding	–	EC50 [5]: 0.0048 µM
